Test results from FireProtDB (doi:10.1021/bi9621829).

B1: Lysozyme C, P61626 (parent)
chain: MKALIVLGLVLLSVTVQGKVFERCELARTLKRLGMDGYRGISLANWMCLAKWESGYNTRATNYNAGDRSTDYGIFQINSRYWCNDGKTPGAVNACHLSCSALLQDNIADAVACAKRVVRDPQGIRAWVAWRNRCQNRDVRQYVQGCGV

Variants of: B1
Conditions: Homo sapiens, pH 2.7, Thermal, DSC, glycine 0.05 M, reversible: yes, structure 1LZ1, whole UniProt chain shown

Variant	Tm [°C]	change of melting temperature, mutant - wild type (higher = more stable) [°C]	heat capacity change of unfolding [kcal/mol/K]	unfolding enthalpy (calorimetric) [kcal/mol]	unfolding enthalpy (van 't Hoff) [kcal/mol]	ddG of mutation (higher = less stable) (64.9 °C) [kcal/mol]	heat capacity change of unfolding (64.9 °C) [kcal/mol/K]
MKALIVLGLVLLSVTVQGKVFERCELARTLKRLGMDGYRGISLANWMCLAKWESGYNTRATNYNAGDRSTDYGIFQINSRYWCNDGKTPGAVNACHLSCSALLQDNIADAAACAKRVVRDPQGIRAWVAWRNRCQNRDVRQYVQGCGV	62.6	-2.3	1.53	112	120	–	–
MKALIVLGLVLLSVTVQGKAFERCELARTLKRLGMDGYRGISLANWMCLAKWESGYNTRATNYNAGDRSTDYGIFQINSRYWCNDGKTPGAVNACHLSCSALLQDNIADAVACAKRVVRDPQGIRAWVAWRNRCQNRDVRQYVQGCGV	60.3	-4.6	1.56	112	114	1.51	1.56
MKALIVLGLVLLSVTVQGKVFERCELARTLKRLGMDGYRGISLANWMCLAKWESGYNTRATNYNAGDRSTDYGIFQINSRYWCNDGKTPGAVNACHLSCSALLQDNIADAVACAKRVVRDPQGIRAWVAWRNRCQNRDVRQYAQGCGV	60.9	-4	1.29	113	116	1.32	1.29
MKALIVLGLVLLSVTVQGKVFERCELARTLKRLGMDGYRGISLANWMCLAKWESGYNTRATNYNAGDRSTDYGIFQINSRYWCNDGKTPGAVNACHLSCSALLQDNIADAVACAKRVVRDPQGIRAWVAWRNRCQNRDARQYVQGCGV	60.4	-4.5	1.53	110	112	1.44	1.53
MKALIVLGLVLLSVTVQGKVFERCELARTLKRLGMDGYRGISLANWMCLAKWESGYNTRATNYNAGDRSTDYGIFQINSRYWCNDGKTPGAVNACHLSCSALLQDNIADAVACAKRVVRDPQGIRAWVAWRNRCQNRDVRQYVQGCGA	62.3	-2.6	1.51	111	119	0.84	1.51
MKALIVLGLVLLSVTVQGKVFERCELARTLKRLGMDGYRGISLANWMCLAKWESGYNTRATNYNAGDRSTDYGIFQINSRYWCNDGKTPGAVNACHLSCSALLQDNIADAVACAKRVVRDPQGIRAWAAWRNRCQNRDVRQYVQGCGV	66.4	1.5	1.24	116	122	-0.53	1.24
MKALIVLGLVLLSVTVQGKVFERCELARTLKRLGMDGYRGISLANWMCLAKWESGYNTRATNYNAGDRSTDYGIFQINSRYWCNDGKTPGAANACHLSCSALLQDNIADAVACAKRVVRDPQGIRAWVAWRNRCQNRDVRQYVQGCGV	63.8	-1.1	1.48	114	120	0.36	1.48
MKALIVLGLVLLSVTVQGKVFERCELARTLKRLGMDGYRGISLANWMCLAKWESGYNTRATNYNAGDRSTDYGIFQINSRYWCNDGKTPGAVNACHLSCSALLQDNIADAVACAKRAVRDPQGIRAWVAWRNRCQNRDVRQYVQGCGV	61.9	-3	1.58	111	117	0.98	1.58
MKALIVLGLVLLSVTVQGKVFERCELARTLKRLGMDGYRGISLANWMCLAKWESGYNTRATNYNAGDRSTDYGIFQINSRYWCNDGKTPGAVNACHLSCSALLQDNIADAVACAKRVARDPQGIRAWVAWRNRCQNRDVRQYVQGCGV	64.1	-0.8	1	110	120	0.26	1
